Measured values published in the nanobody polyreactivity screen of Harvey et al. (2022).

Test: yeast display, Sf9 membrane polyspecificity reagent, FACS + sequencing; frameworks hold sequencing errors
Summary of the method: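 A synthetic nanobody library was expressed on Saccharomyces cerevisiae BJ5465 by galactose induction for 36–48 hours. The library was stained for 1 hour at 4 °C with 10% biotinylated, detergent-solubilized Sf9 membrane reagent and enriched with streptavidin microbeads before FACS. Low and high (top ~1%) gates were set on anti-HA fluorescence for expression and streptavidin fluorescence for reagent binding, and each polyreactivity label reflects the gate of origin.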

Sequence: QVQLVESGGGLVQAGGSLRLSCAASGSTFGTYAMGWSRQAPGKERELVAAITSGGSTDYADSVKGRFTISRDNAKNTVYLQMNSLKPEDTAVYYCNATWELLSYYYLFWGYDYWGQGTQVTVSS
- polyreactivity (PSR sort gate): low polyreactivity

Sequence: QVQLVESGGGLVQAGGSLRLSCAASGSTFGTYAMGWYRQAPGKERELVAAISRRGGSTYYADSVKGRFTISRDNAKNTVYLQMNSLKTEDTAVYYCAARKFHPDDNYWGQGTQVTVSS
- polyreactivity (PSR sort gate): high polyreactivity

Sequence: QVQLVESGGGLVQAGGSLRLSCAASGSTFGTYAMGWYRQAPGKERELVATISIGGITYYADSVKGRFTISRDNAKNTVYLQMNSLKPEDTAVYYCAKDVTDPTSRSDPSGDDYWGQGTQVTVSS
- polyreactivity (PSR sort gate): low polyreactivity

Sequence: QVQLVESGGGLVQAGGSLRLSCAASGSTFGTYAMGWYRQEPGKERELVAAIRWSGVSTYYADSVKGRFTISRDNAKNTVYLQMNSLKPEDTAVYYCAVALWVRGTYIYEYWGQGTQVTVSS
- polyreactivity (PSR sort gate): high polyreactivity

Sequence: QVQLVESGGGLVQAGGSLRLSCAASGSTFGTYARGWYRQAPGKERELVAAISWSGGSTYYADSVKGRFTISRDNAKNTVYLQMNSLKPEDTAVYYCNAKTSIGTWVGDDYWGQGTQVTVSS
- polyreactivity (PSR sort gate): low polyreactivity

Sequence: QVQLVESGGGLVQAGGSLRLSCAASGSTFGTYVMGWYRQAPGKERELVAAISKRGGRTYYADSVKGRFTISRDNAKNTVYLQMNSLKPEDTAVYYCNAVYLYSGSSARYYWGQGTQVTVSS
- polyreactivity (PSR sort gate): high polyreactivity

Sequence: QVQLVESGGGLVQAGGSLRLSCAASGSTFGVYAMGWSRQAPGKERELDAAIRWSDGTTYYADSVKGRFTNSRDNAKNPVYLQMNSLKPEDTAVYYCAAVGYKRGTGRYGYWGQGTQVTVSS
- polyreactivity (PSR sort gate): high polyreactivity

Sequence: QVQLVESGGGLVQAGGSLRLSCAASGSTFGVYAMVWYRQAPGKERELVAAINYSGRTYYADSVKGRFTISRDNAKNTVYLQMNSLKPEDTAVYYCAARIIVDDVGTKYYYWGQGTQVTVSS
- polyreactivity (PSR sort gate): high polyreactivity

Sequence: QVQLVESGGGLVQAGGSLRLSCAASGSTFGVYTMGWYRQAPGKERELVAAITKSGGSTYYADSVKGRFTISRDNAKNTVYLQMNSLKPEDTAVYYCNTDYGRYLYYRYGYWGQGTQVTVSS
- polyreactivity (PSR sort gate): low polyreactivity

Sequence: QVQLVESGGGLVQAGGSLRLSCAASGSTFGWNAMGWYRQAPGKERELVAAISRSGGRTYYADSVKGRFTISRDNAKNTVYLQMNSLKPEDTAVYYCAADRSTTGGLRGYWGQGTQVTVSS
- polyreactivity (PSR sort gate): high polyreactivity

Sequence: QVQLVESGGGLVQAGGSLRLSCAASGSTFGWNAMGWYRQAPGKERELVAAISSRGGSTSYADSVKGRFTISRDNAKNSVYLQMNSLKPEYTAVYYCAAPYVYYRYGYWGLGTQVTVSS
- polyreactivity (PSR sort gate): low polyreactivity

Sequence: QVQLVESGGGLVQAGGSLRLSCAASGSTFGWNAMGWYRQAPGKERELVAAISSSGGITYYADSVKGRFTISRDNAKNTVYLQMNSLKPEDTAVYYCAAERDDDWVNYWGQGTQVTVSS
- polyreactivity (PSR sort gate): low polyreactivity

Sequence: QVQLVESGGGLVQAGGSLRLSCAASGSTFGWNAMGWYRQAPGKERELVAAISSSGGITYYAYSVKGRFTISRDKAKNTVSLQMNSLKPEDTAVYYCAAERDDDWGNYWGQGTQVTGSS
- polyreactivity (PSR sort gate): low polyreactivity

Sequence: QVQLVESGGGLVQAGGSLRLSCAASGSTFGWYALGWYRQAPGKERELVAAIRSNGGSTYYADSVKGRFTLSRDNAKNTVYLQINSLKPEDTAVYYCAARGSPSKHHWYDYWGQGTQVTVSS
- polyreactivity (PSR sort gate): low polyreactivity

Sequence: QVQLVESGGGLVQAGGSLRLSCAASGSTFGWYAMGWYRQAPGKERELVASITWDGGRTYYAHSVKGRFTISRDNAKNTVYLQMNSLKPEDTAVYYCAARGVSSPLNYWGQGSQVTVSS
- polyreactivity (PSR sort gate): low polyreactivity

Sequence: QVQLVESGGGLVQAGGSLRLSCAASGSTFGWYTMGWYRQAPGKERELVAAINYSGGSTYYADSVKGRFTISRDNAKNTVYLQMNSLKPEDTAVYYCATDQSTYLYGYYYWGQGTQVTVSS
- polyreactivity (PSR sort gate): low polyreactivity

Sequence: QVQLVESGGGLVQAGGSLRLSCAASGSTFGWYTMGWYRQAPGKERELVAAISSGGRTYYADSVKGRFTISRDNEKNTVYLQMNILKPEDTAVYYCAAGIYSSRHSPYGYWGQGTQVTVSS
- polyreactivity (PSR sort gate): high polyreactivity

Sequence: QVQLVESGGGLVQAGGSLRLSCAASGSTFGYNAMGWYRQAPGKERELVAAITRSGGSTDYADSVKGRFTISRDNAKNTVYFQMNSLKPEDTAVYYCAAEGTGLQRYGYFGDDGYWGQGTQVTVSS
- polyreactivity (PSR sort gate): low polyreactivity

Sequence: QVQLVESGGGLVQAGGSLRLSCAASGSTFGYNAMGWYRQAPGKERELVAAITWSGGSTYYADSVKGRFTISRDNAKNTVYLQMNSLKPEDTAAYYCAADDWYNSKWHYYYWGQGTQVTVSS
- polyreactivity (PSR sort gate): low polyreactivity

Sequence: QVQLVESGGGLVQAGGSLRLSCAASGSTFGYYAMGWSRQAPGKERELVAAITGSGGSTYYADSVKGRFTISRDNAKNTVYLQMNSLKPEDTAVYYCATSYLLGRYYEYYYWGQGTQVTVSS
- polyreactivity (PSR sort gate): high polyreactivity

Sequence: QVQLVESGGGLVQAGGSLRLSCAASGSTFGYYAMGWYRQAPGKERELVAAISASGSRTYYADSVKGRFTISRDNAKNTVYSQMNSQKPEDTAVYYCPALQYRRKIPTAYAGDYWGQGTQVTVSS
- polyreactivity (PSR sort gate): high polyreactivity

Sequence: QVQLVESGGGLVQAGGSLRLSCAASGSTFGYYAMGWYRQAPGKERELVAAITASGGGTYYADSVKGRFTISRDNAKNTFYLQMNSLKPEDTEVYYCNRGYDYWGQGTHVTVSS
- polyreactivity (PSR sort gate): low polyreactivity

Sequence: QVQLVESGGGLVQAGGSLRLSCAASGSTFGYYAMGWYRQAPGKERELVAAITGSGGRTYYADSVKGRFTISRDNAKNTVYLQMNSLKPEDTAVYYCAARTYRTEFAYGSWGQGTQVTVSS
- polyreactivity (PSR sort gate): low polyreactivity

Sequence: QVQLVESGGGLVQAGGSLRLSCAASGSTFGYYAMGWYRQAPGKERELVAAITSGGTTNYADSVKGRFTISRDNAKNTVYLQMNSLKPEDTAVYYCNAVGTFVRYWTDGRDGVTYDYWGQGTQVTVSS
- polyreactivity (PSR sort gate): low polyreactivity

Sequence: QVQLVESGGGLVQAGGSLRLSCAASGSTFGYYAMGWYRQAPGKERELVADISKSSGSTYYADSVKGRFTISRDNAKNTVYLQMNSLKPEDTAVYYCNRRYYYRTYDYWGQGTQVTVSS
- polyreactivity (PSR sort gate): high polyreactivity

Sequence: QVQLVESGGGLVQAGGSLRLSCAASGSTFGYYAMGWYRQAPGKERELVAVITRGGSTYYADSVKGRFTISRDNAKNTVYLQMNSLKQEDTAVYYCNARVLAVHYGYWGQGTQVTVSS
- polyreactivity (PSR sort gate): high polyreactivity

Sequence: QVQLVESGGGLVQAGGSLRLSCAASGSTFGYYDMGWYRQAPGKERELVATITKSGGTTRYADSVKGRFTISRDNAKNTVYLQMNSLKPEDTAVYYCAADGTWRLLDDYWGQGTQVTVSS
- polyreactivity (PSR sort gate): low polyreactivity

Sequence: QVQLVESGGGLVQAGGSLRLSCAASGSTFGYYGMGWYRQAPGKERELVAAISASGGRTYYADSVKGRFTISRDNAKITVYLQMNSLKPEDTAVYYCAATVYAWRSTYGYWGQGTQVTVSS
- polyreactivity (PSR sort gate): high polyreactivity

Sequence: QVQLVESGGGLVQAGGSLRLSCAASGSTFGYYTMGWSRQAPGKERELVAAITWSGGSTYYADSVKGRFTISRHNAKNTVYLQMNSLKAEDTAVYYCAADDYWTPFGYWGQGTQVTVSS
- polyreactivity (PSR sort gate): low polyreactivity

Sequence: QVQLVESGGGLVQAGGSLRLSCAASGSTFGYYTMGWYRQAPGKERELVAAISRSGGRTYYADSVKGRFTISRDNAKKAVYLQMNSLKPEVTAVFYCNADGTRYAGDDYWGQGTQVTVSS
- polyreactivity (PSR sort gate): high polyreactivity

Sequence: QVQLVESGGGLVQAGGSLRLSCAASGSTFHGYDMGWYRQAPGKERELVAAITSSGDDTYYADSEKGRFTISLDNAKNTVYLQMNSLKPEDTAVYYCAAEYTEGYTHDYWGQGTQVTVSS
- polyreactivity (PSR sort gate): low polyreactivity

Sequence: QVQLVESGGGLVQAGGSLRLSCAASGSTFHLYAMGWSRQAPGKERELVAVITSGDSTSYADSVKGRFTISRDNAKNTVYLQMNSLKPEDTAVYYCAADSYSGYNYWGQGTQVTVSS
- polyreactivity (PSR sort gate): low polyreactivity
